Experimental data taken from patent publication US20130149306A1, “Antagonists of Sema3E/PlexinD1 interaction as anti-cancer agents” (NETRIS PHARMA, priority 2010, published 2013).
Values belong to the molecule of their own block, whether it stands above or below them.

Columns and labels:
[1] = system: HEK 293T cells transfected with hPlexinD1; assay: PlexinD1-induced cell death of transfected HEK 293T cells; format: cell-based, human; conditions: for Effect of caspase inhibitor on the death effect of PlexinD1: 10 μM, trypan blue exclusion, cleaved Caspase-3 positive cells; for Effect of co-transfected semaphorin vector on PlexinD1-induced cell death: co-transfection with hPlexinD1
Method: FIGS. 28-29: HEK 293T cells transfected with an expression control vector or hPlexinD1 were cultured in absence or presence of different caspase inhibitors at 10 μM (caspase-3 (z-DEVD-fmk) and capspase-9 (z-LEHD-fmk), caspase-8 (z-IETD-fmk)). Cell death was measured by trypan blue exclusion-assay (28) or by quantification of the percentage of cleaved Caspase-3 positive cells (29). Activation of caspase-9 and caspase-3 is required for PlexinD1-mediated cell death.
FIG. 30: HEK 293T cells transfected with expression vectors for hPlexinD1, hPlexinD1-RA or a control vector were cultured in the absence or presence of different concentration of Sema3E (10 to 100 ng/ml).
FIG. 31: HEK 293T cells transfected with an expression vector for hPlexinD1 together with expression vector coding for Sema3E, Sema3C or a soluble form of Sema4A.
(§1) Cell death/viability was determined by trypan blue dye exclusion, MTT cell viability assay, calcein assay, and anti-active caspase-3 immunoreactivity. In some experiments, cells were seeded in multiple 24-well plates (5×10^4 cells/well) for 24 h then transfected with different vectors using Lipofectamine Plus (Invitrogen): The different analysis occurred after 48 h (HEK-293T cells) or 72 h (4T1 cells) of serum starvation. In some experiments, cells were cultured in the presence of 10 μM caspase inhibitors: caspase-3 inhibitor II (Z-DEVD-FMK, 264155, VWR), caspase-8 inhibitor II (Z-IETD-FMK, 218759, VWR), and caspase-9 inhibitor II ([…], 218776, VWR).
(§2) For trypan blue exclusion experiments, total cells (adherent and floating) were collected by mechanical detachment and medium collection. Cells were pelleted by slow centrifugation and resuspended in serum-free medium. Trypan blue (0.4%) was added in a ratio of 1:1 to the cell suspension, and the percentage of cell death was measured in a hemacytometer by counting, in a blinded fashion and within a given volume, the number of blue (dead) cells and comparing this number to the total number of cells in this same volume.
(§3) For caspase staining, after immunostaining with anti-active caspase-3 antibody, the percentage of labelled cells was estimated by comparing the number of active caspase-3-stained cells with the total number of cells present on a given surface.

[2] = biological target: PlexinD1-IC D1471N/D1624N (UniProt Q9Y4D7)
[3] = biological target: T1, in vitro translated intracellular domain of PlexinD1 (hPlexinD1 aa 1293 to 1925) (UniProt Q9Y4D7)
T1 sequence: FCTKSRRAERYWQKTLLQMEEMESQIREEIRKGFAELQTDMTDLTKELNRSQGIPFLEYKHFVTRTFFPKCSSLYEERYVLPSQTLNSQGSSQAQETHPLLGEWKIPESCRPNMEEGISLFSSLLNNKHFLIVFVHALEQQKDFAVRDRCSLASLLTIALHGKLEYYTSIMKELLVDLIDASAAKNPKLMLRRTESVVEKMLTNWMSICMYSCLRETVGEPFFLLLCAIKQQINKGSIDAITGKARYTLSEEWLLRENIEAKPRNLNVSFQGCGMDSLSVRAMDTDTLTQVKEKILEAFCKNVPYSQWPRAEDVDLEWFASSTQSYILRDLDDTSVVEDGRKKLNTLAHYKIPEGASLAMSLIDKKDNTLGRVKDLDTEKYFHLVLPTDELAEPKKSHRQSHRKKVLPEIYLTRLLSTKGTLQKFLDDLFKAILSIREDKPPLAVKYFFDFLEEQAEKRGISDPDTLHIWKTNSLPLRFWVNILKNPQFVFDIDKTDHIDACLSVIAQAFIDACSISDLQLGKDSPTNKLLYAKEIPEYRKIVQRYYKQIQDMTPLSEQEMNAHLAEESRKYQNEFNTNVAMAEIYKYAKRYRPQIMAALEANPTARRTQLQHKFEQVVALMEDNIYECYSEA

4T1 cells = assay: Cell death/viability in cultures of 4T1 cells; format: cell-based, mouse
Method: as §1, §2, §3
For assessing cell viability using calcein, cells were plated in OptiMEM medium in 96-well black plates (Greiner Bio-one, Courtaboeuf, France). After 3-6 days in culture, live cells were stained with 0.5 μg/ml green calcein-acetoxymethyl ester (Molecular Probes, Eugene, Oreg.) for 40 minutes at 37° C., and counted using a flash cytometer (Trophos, Marseille, France).
We next used an in vitro assay to evaluate whether SD1 is directly capable of triggering death of tumor cells. […] Similarly, 4T1-SD1 cells, which proliferate at the same rate as 4T1-mock cells during the first 24-48 h in culture, show increased death 72 h after plating, possibly as a result of SD1 accumulation in the culture medium (FIG. 14). […] Thus, SD1 triggers cancer cell death in a PlexinD1 dependent manner.

[4] = biological target: T2, Sema3E (as printed in the displacement assay and as 'exogenous Sema3E' or Sema3E expression vector in the … (Mus musculus (Mouse), UniProt P70275 26-775)); assay: displacement of Sema3E binding to PlexinD1-expressing HEK293T cells by SD1 in conditioned medium (1-12 nM)
T2 construct: The methods describe production of mouse AP-Sema3E, which may be the one used in the displacement assay; also called Sema3E ligand; not shown: Alkaline phosphatase (AP) fusion partner, and a His tag if the AP-Sema3E-his construct was used
T2 sequence: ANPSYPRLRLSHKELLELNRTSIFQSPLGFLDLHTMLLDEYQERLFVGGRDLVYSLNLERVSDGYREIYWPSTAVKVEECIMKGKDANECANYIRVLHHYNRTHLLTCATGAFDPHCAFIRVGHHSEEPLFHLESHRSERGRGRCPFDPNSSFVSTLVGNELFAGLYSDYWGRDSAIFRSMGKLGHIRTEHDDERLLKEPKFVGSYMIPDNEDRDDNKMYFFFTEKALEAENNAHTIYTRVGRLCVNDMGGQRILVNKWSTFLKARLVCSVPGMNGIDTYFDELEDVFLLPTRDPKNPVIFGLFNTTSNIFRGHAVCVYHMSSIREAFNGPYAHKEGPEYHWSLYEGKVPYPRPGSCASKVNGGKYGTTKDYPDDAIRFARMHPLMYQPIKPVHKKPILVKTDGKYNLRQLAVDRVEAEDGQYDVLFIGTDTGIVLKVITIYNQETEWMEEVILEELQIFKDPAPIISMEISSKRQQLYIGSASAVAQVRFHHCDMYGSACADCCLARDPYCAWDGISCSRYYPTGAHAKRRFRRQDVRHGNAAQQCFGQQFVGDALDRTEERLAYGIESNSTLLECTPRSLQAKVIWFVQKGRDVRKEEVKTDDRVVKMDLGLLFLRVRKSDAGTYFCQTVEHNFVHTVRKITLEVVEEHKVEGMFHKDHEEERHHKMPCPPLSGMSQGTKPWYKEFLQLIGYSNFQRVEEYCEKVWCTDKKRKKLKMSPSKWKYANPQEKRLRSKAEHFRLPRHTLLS

Molecule: z-LEHD-fmk [reference compound]
Effect of caspase inhibitor on the death effect of PlexinD1 [1]: blocked

Molecule: purified active caspase-3
in vitro cleavage by active caspase-3 (autoradiography) [2]: Mutation of both aspartic acid residues to asparagine (N) within the intracellular domain of PlexinD1 completely suppressed caspase-3 cleavage
in vitro cleavage by active caspase-3 (autoradiography) [3]: the intracellular domain of PlexinD1 is cleaved by caspase-3, resulting in five protein products that migrate at apparent molecular weight of 16, 24, 30, 37 and 50 kDa

Molecule: z-DEVD-fmk [reference compound]
Effect of caspase inhibitor on the death effect of PlexinD1 [1]: blocked

Molecule: z-IETD-fmk [reference compound]
Effect of caspase inhibitor on the death effect of PlexinD1 [1]: not

Molecule: shRNA1: small hairpin RNA targeting mouse Sema3E, SEQ ID NO: 26 (CCGGGCTGCTGAAAGTAATCACAATCTCGAGATTGTGATTACTTTCAGCAGCTTTTTG) [reference compound]
Death of 4T1 cells on knockdown of Sema3E (4T1 cells; transfection with shRNA to mouse Sema3E): induced death

B1: Sema3E: secreted Semaphorin 3E, ligand of PlexinD1; added as exogenous protein or co-transfected vector (protein)
chain: T2 sequence
Effect of exogenous ligand on PlexinD1-triggered cell death ([1]; Sema3E 10 to 100 ng/ml): inhibited in a dose dependent manner
Effect of co-transfected semaphorin vector on PlexinD1-induced cell death [1]: saved from cell death
Effect of exogenous Sema3E on SD1-induced death (4T1 cells; exogenous Sema3E 100 ng/ml): sufficient to rescue cells from death
Effect of exogenous Sema3E on death induced by Sema3E knockdown (4T1 cells; exogenous Sema3E 100 ng/ml, shRNA1): reversed

IC50 [4]: 5.05 nM
B2: SD1 (sema domain of mouse PlexinD1, aa 61 to 531, fused in frame with six myc epitope tags) (receptor, UniProt Q3UH93 61-531, looked up, not shown: small tags and cut ends)
chain: TNNFALDGTAGTVYLAAVNRLYQLSSANLSLEAEATVGPVPDSPLCHAPQLPQASCEHPRRLTDNYNKILQLDPGQGLVVACGSIYQGLCQLRRRGNISALAVSFPPAAPTAEPVTVFPSMLNVAANHPNASTVGLVLPPTSGTGGSRLLVGATYTGFGSAFFPRNRSLEDHRFENTPEIAIRSLDARGDLAKLFTFDLNPSDDNILKIKQGAKEQHKLGFVRAFLHPAVPPHSAQPYAYLALNSEARAGDKDSQARSLLARICLPRGAGGDAKKLTESYIQLGLQCAGGAGRGDLYSRLVSVFPAREQFFAVFERPQGAPGARNAPAALCAFRFDDVQAAIRAARTACFVEPAPDVVAVLDSVVQGTGPACESKRNIQLQPEQLDCGAAHLQHPLTILQPLRASPVFRAPGLTAVAVASANNYTAVFLGTATGRLLKISLNESMQVVSRRVLTVAYGEPVHHVMQFDPMD
notes: range 61-531; The construct starts with the Ig k-chain secretion signal peptide, left out here as it is a secretion signal; also called SD1 polypeptide; myc-tagged SD1

B3: Sema3C: class 3 semaphorin which does not directly bind to PlexinD1; expressed from vector (protein, UniProt Q99985 21-751, looked up)
Semaphorin-3C: GSSQPQARVYLTFDELRETKTSEYFSLSHHPLDYRILLMDEDQDRIYVGSKDHILSLNINNISQEALSVFWPASTIKVEECKMAGKDPTHGCGNFVRVIQTFNRTHLYVCGSGAFSPVCTYLNRGRRSEDQVFMIDSKCESGKGRCSFNPNVNTVSVMINEELFSGMYIDFMGTDAAIFRSLTKRNAVRTDQHNSKWLSEPMFVDAHVIPDGTDPNDAKVYFFFKEKLTDNNRSTKQIHSMIARICPNDTGGLRSLVNKWTTFLKARLVCSVTDEDGPETHFDELEDVFLLETDNPRTTLVYGIFTTSSSVFKGSAVCVYHLSDIQTVFNGPFAHKEGPNHQLISYQGRIPYPRPGTCPGGAFTPNMRTTKEFPDDVVTFIRNHPLMYNSIYPIHKRPLIVRIGTDYKYTKIAVDRVNAADGRYHVLFLGTDRGTVQKVVVLPTNNSVSGELILEELEVFKNHAPITTMKISSKKQQLYVSSNEGVSQVSLHRCHIYGTACADCCLARDPYCAWDGHSCSRFYPTGKRRSRRQDVRHGNPLTQCRGFNLKAYRNAAEIVQYGVKNNTTFLECAPKSPQASIKWLLQKDKDRRKEVKLNERIIATSQGLLIRSVQGSDQGLYHCIATENSFKQTIAKINFKVLDSEMVAVVTDKWSPWTWASSVRALPFHPKDIMGAFSHSEMQMINQYCKDTRQQHQQGDESQKMRGDYGKLKALINSRKSRNRRNQLPES
Effect of co-transfected semaphorin vector on PlexinD1-induced cell death [1]: no change
